According to IntAct's records for PubMed 23644599:

B1: mRNA decay activator protein ZFP36 (Homo sapiens), P26651 (parent)
chain: MDLTAIYESLLSLSPDVPVPSDHGGTESSPGWGSSGPWSLSPSDSSPSGVTSRLPGRSTSLVEGRSCGWVPPPPGFAPLAPRLGPELSPSPTSPTATSTTPSRYKTELCRTFSESGRCRYGAKCQFAHGLGELRQANRHPKYKTELCHKFYLQGRCPYGSRCHFIHNPSEDLAAPGHPPVLRQSISFSGLPSGRRTSPPPPGLAGPSLSSSSFSPSSSPPPPGDLPLSPSAFSAAPGTPLARRDPTPVCCPSCRRATPISVWGPLGGLVRTPSVQSLGSDPDEYASSGSSLGGSDSPVFEAGVFAPPQPVAAPRRLPIFNRISVSE

Variants of: B1
Conditions: with CNOT1, A5YKK6-2
Sequence of CNOT1, A5YKK6-2 (A5YKK6 other isoform, or with tags, fused parts or gaps): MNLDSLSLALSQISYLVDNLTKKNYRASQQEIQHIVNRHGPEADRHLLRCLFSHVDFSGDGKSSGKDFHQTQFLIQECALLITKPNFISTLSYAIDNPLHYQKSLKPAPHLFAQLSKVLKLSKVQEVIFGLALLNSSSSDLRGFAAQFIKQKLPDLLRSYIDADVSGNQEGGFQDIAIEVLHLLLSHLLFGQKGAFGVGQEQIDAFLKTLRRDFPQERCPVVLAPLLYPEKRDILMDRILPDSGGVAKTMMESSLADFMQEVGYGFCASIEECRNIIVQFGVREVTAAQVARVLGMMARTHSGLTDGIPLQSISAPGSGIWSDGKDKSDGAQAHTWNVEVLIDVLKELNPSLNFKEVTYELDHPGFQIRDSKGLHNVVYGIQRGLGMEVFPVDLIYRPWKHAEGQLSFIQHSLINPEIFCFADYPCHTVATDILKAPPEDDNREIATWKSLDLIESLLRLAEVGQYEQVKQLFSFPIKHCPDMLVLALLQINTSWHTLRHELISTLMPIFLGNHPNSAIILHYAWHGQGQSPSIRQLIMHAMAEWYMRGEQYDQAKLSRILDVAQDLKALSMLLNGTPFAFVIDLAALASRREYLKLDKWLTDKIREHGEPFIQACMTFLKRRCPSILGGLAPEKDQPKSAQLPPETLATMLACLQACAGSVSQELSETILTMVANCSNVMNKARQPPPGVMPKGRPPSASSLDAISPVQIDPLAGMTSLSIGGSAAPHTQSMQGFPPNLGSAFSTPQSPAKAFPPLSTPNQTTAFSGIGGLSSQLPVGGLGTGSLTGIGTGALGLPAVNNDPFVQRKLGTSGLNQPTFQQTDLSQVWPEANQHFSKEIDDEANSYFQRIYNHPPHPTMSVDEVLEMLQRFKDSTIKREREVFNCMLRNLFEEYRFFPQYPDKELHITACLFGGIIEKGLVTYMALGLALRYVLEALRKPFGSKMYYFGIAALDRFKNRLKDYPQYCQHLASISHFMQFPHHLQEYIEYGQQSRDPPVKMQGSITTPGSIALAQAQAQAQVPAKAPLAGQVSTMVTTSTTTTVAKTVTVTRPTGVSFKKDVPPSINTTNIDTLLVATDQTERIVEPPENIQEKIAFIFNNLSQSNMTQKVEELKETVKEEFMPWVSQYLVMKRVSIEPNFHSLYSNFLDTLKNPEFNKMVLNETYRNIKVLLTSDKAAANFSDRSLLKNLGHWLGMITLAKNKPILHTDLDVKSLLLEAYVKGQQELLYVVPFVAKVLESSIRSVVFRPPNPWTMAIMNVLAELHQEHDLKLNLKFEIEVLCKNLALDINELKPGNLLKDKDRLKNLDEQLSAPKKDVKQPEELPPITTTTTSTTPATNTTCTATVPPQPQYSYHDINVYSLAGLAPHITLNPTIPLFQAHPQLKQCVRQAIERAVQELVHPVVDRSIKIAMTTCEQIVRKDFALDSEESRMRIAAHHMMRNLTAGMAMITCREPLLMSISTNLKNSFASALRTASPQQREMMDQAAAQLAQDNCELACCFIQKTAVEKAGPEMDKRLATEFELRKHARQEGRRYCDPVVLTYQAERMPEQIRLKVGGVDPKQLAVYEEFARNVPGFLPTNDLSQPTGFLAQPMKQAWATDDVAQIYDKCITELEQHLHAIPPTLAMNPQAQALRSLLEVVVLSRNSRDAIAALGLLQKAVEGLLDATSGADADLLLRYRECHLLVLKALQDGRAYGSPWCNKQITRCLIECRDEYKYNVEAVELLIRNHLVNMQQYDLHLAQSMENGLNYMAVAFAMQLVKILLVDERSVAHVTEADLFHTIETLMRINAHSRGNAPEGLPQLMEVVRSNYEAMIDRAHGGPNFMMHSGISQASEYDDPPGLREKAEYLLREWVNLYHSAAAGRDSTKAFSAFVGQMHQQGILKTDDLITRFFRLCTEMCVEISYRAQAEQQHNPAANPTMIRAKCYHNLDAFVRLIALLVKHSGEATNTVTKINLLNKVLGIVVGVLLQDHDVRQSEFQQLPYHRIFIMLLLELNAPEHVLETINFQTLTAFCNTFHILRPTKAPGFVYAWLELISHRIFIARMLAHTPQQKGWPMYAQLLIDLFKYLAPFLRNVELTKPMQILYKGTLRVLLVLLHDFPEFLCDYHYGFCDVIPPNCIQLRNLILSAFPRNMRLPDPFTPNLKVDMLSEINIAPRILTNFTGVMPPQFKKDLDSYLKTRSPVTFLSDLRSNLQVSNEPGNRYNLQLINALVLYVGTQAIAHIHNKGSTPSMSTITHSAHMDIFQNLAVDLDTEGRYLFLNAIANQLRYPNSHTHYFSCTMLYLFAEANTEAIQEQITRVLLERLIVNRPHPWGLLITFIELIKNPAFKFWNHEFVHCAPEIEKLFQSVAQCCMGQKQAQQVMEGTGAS

| effect of a mutation on the interaction | Variant |
| --- | --- |
| disrupting interaction strength | F319A |

Variants of: B1
Conditions: with CNOT1, A5YKK6-2
Remark: another data set of the same source

| effect of a mutation on the interaction | Variant |
| --- | --- |
| disrupting interaction strength | R315A |
